Assay results reported in patent US10967068B2, “Stability-modulating linkers for use with antibody drug conjugates” (priority 2014, dated 2021).
Read-outs that look alike come from different tables or passages of the source. *1 amine or outer side, *2 acyl side, *3 side chain or, on linkers, in order; H or OH if unused. Where a SMILES comes first, the peptide text is derived from it. [ ]: non-standard residue; d: D form. The star is where a group is joined. Dolaproine = CO[C@@H]([C@@H]1CCCN1)[C@@H](C)C(=O)O; Dil = CC[C@H](C)[C@H](NC)[C@@H](CC(=O)O)OC; Benzenesulfonyl = O=S(=O)(c1ccccc1)*; PABC = O=C(OCc1ccc(N[*:1])cc1)[*:2]; Doe = c1ccc(C[C@H](N*)c2nccs2)cc1; Cit = NC(=O)NCCC[C@H](N)C(=O)O; X1 = NCCOCCOCCOCCOCCOCC*; Aib = CC(C)(N)C(=O)O; Ethyl(2-NH2) = NCC*; Ms = CS(=O)(=O)*; X3 = NCCOCC*

Experiments:
[1] = target: T1, mouse plasma enzyme (Mus musculus, UniProt P23953); assay type: biochemical
T1 construct: 100-200 ug of ADC were incubated in mouse plasma (provided by Bioreclamation); tissue Bioreclamation; host or cells: mouse plasma
T1 sequence (P23953 19-554): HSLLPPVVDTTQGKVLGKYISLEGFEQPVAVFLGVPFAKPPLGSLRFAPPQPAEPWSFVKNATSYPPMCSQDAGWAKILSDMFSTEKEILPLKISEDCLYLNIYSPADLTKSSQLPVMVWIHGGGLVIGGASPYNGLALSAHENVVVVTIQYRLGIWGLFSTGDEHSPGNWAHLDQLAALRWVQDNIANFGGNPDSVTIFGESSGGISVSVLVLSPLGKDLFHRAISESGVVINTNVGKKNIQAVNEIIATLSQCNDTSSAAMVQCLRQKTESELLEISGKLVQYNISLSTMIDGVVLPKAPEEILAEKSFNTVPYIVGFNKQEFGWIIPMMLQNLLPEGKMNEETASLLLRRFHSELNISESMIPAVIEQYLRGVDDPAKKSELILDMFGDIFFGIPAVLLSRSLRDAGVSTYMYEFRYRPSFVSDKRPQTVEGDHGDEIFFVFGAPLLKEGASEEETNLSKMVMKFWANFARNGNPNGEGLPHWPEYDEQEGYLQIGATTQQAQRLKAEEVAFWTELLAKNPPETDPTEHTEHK
Description: First, Balb/c serum (BioreclamationIVT) was depleted of IgG and albumin using commercially available MabSelect Protein A and Protein G resins (GE Healthcare), followed by Qproteome Murine Albumin Depletion Kit (Qiagen). The depleted serum was then subjected to sequential precipitation with ammonium sulfate. Fractions with the highest linker hydrolase activity were then applied to cation exchange HiTrap SP column (GE Healthcare) using step gradient elutions with sodium chloride. After that, SP fractions with the highest activity were applied to anion exchange HiTrap Q column (GE Healthcare) using step gradient elutions with sodium chloride. Fractions with the highest hydrolase activity were then combined and size fractionated using Superdex 200 column (GE Healthcare). […] To verify the correct identification of mouse Carboxylesterase 1C as the plasma enzyme responsible for linker cleavage, the recombinant protein was expressed in Expi 293 cells, and purified using a HIS tag following standard protocols.

[2] = In Vitro Stability Assay—Mouse Plasma; assay type: in vitro ADME; details: for DAR: before plasma incubation
Description: 100-200 ug of ADC were incubated in mouse plasma (provided by Bioreclamation) supplemented with 1×PBS to the final ADC concentration of 0.125 mg/mL. Following incubation for 3-7 days, samples were diluted with an equal volume of 1×PBS, and ADCs were isolated using Trop2 antigen coupled to CNBr-activated Sepharose (GE Healthcare) using standard protocols. Drug-antibody ratios were assessed before and after in vitro exposure using HIC methods and mass spectrometry.
DAR values for conjugates purified after plasma incubation were compared to DAR values prior to plasma treatment.

[3] = Stability in SCID mouse plasma of linker-payloads conjugated to Combo_Rd4_0.6nM_C29 anti-BCMA antibody; assay type: in vitro ADME; details: LCQ05 tag
[4] = Trop-2 antibody attachment position TG6, HIC or mass spectrometry
[5] = attachment position L11B, % DAR remaining after plasma 3 or 4.5 days
[6] = attachment position TG6, % DAR remaining after incubation in plasma for 3 or 4.5 days
[7] = attachment position TG6, plasma species not printed in table (values match mouse plasma, Table 4)

O=[N+]([O-])c1ccc(OP(=O)(O)Oc2ccc([N+](=O)[O-])cc2)cc1 [BNPP]
inhibition of the mouse plasma enzyme (linker cleavage) [1]: inhibited

CC[C@H](C)[C@@H]([C@@H](CC(=O)N1CCC[C@H]1[C@H](OC)[C@@H](C)C(=O)N[C@@H](Cc1ccccc1)c1nccs1)OC)N(C)C(=O)[C@@H](NC(=O)C(C)(C)NC(=O)OCc1ccc(NC(=O)[C@H](CCCNC(N)=O)NC(=O)[C@@H](NC(=O)[C@H](CCCCN)NS(C)(=O)=O)C(C)C)cc1)C(C)C [Example 44, N˜2˜-(methylsulfonyl)lysyl-L-valyl-N-{4-[(8S,11S,12R)-11-[(2S)-butan-2-yl]-12-(2-{(2S)-2-[(1R,2R)-1-methoxy-2-methyl-3-oxo-3-{[(1S)-2-phenyl-1-(1,3-thiazol-2-yl)ethyl]amino}propyl]pyrrolidin-1-yl}-2-oxoethyl)-5,5,10-trimethyl-3,6,9-trioxo-8-(propan-2-yl)-2,13-dioxa-4,7,10-triazatetradec-1-yl]phenyl}-N˜5˜-carbamoylornithinamide] (Ms-KV[Cit][PABC][Aib]V[Dil][Dolaproine]-Doe)
DAR [2, 4]: 1.74
DAR after plasma incubation for 3 to 4.5 days ([2]; attachment position L11B): 0.25
Conjugate stability (%) [2, 5]: 17%
DAR ([2]; attachment position L11B): 1.50
Conjugate stability (%) [2, 6]: 47%
DAR after plasma incubation for 3 to 4.5 days [2, 7]: 0.82

CC[C@H](C)[C@@H]([C@@H](CC(=O)N1CCC[C@H]1[C@H](OC)[C@@H](C)C(=O)N[C@@H](Cc1ccccc1)c1nccs1)OC)N(C)C(=O)[C@@H](NC(=O)C(C)(C)NC(=O)OCc1ccc(NC(=O)[C@H](CCCNC(N)=O)NC(=O)[C@@H](NC(=O)[C@H](CCCCN)NS(=O)(=O)c2ccccc2)C(C)C)cc1)C(C)C [Example 45, N˜2˜-(phenylsulfonyl)lysyl-L-valyl-N-{4-[(8S,11S,12R)-11-[(2S)-butan-2-yl]-12-(2-{(2S)-2-[(1R,2R)-1-methoxy-2-methyl-3-oxo-3-{[(1S)-2-phenyl-1-(1,3-thiazol-2-yl)ethyl]amino}propyl]pyrrolidin-1-yl}-2-oxoethyl)-5,5,10-trimethyl-3,6,9-trioxo-8-(propan-2-yl)-2,13-dioxa-4,7,10-triazatetradec-1-yl]phenyl}-N˜5˜-carbamoylornithinamide] (Benzenesulfonyl-KV[Cit][PABC][Aib]V[Dil][Dolaproine]-Doe)
DAR [2, 4]: 1.42
DAR after plasma incubation for 3 to 4.5 days ([2]; attachment position L11B): 0
Conjugate stability (%) [2, 5]: 0%
DAR ([2]; attachment position L11B): 0.66
Conjugate stability (%) [2, 6]: 3%
DAR after plasma incubation for 3 to 4.5 days [2, 7]: 0.04

CC[C@H](C)[C@@H]([C@@H](CC(=O)N1CCC[C@H]1[C@H](OC)[C@@H](C)C(=O)N[C@@H](Cc1ccccc1)c1nccs1)OC)N(C)C(=O)[C@@H](NC(=O)C(C)(C)NC(=O)OCc1ccc(NC(=O)[C@H](CCCNC(N)=O)NC(=O)[C@@H](NC(=O)[C@@H](COCCN)NC(C)=O)C(C)C)cc1)C(C)C [Example 46, N-acetyl-O-(2-aminoethyl)-D-seryl-L-valyl-N-{4-[(8S,11S,12R)-11-[(2S)-butan-2-yl]-12-(2-{(2S)-2-[(1R,2R)-1-methoxy-2-methyl-3-oxo-3-{[(1S)-2-phenyl-1-(1,3-thiazol-2-yl)ethyl]amino}propyl]pyrrolidin-1-yl}-2-oxoethyl)-5,5,10-trimethyl-3,6,9-trioxo-8-(propan-2-yl)-2,13-dioxa-4,7,10-triazatetradec-1-yl]phenyl}-N˜5˜-carbamoylornithinamide] (Ac-[dS](Ethyl(2-NH2))V[Cit][PABC][Aib]V[Dil][Dolaproine]-Doe)
DAR after plasma incubation for 3 to 4.5 days ([2]; attachment position L11B): 0.69
Conjugate stability (%) [2, 5]: 51%
DAR ([2]; attachment position L11B): 1.36

CC[C@H](C)[C@@H]([C@@H](CC(=O)N1CCC[C@H]1[C@H](OC)[C@@H](C)C(=O)N[C@@H](Cc1ccccc1)c1nccs1)OC)N(C)C(=O)[C@@H](NC(=O)C(C)(C)NC(=O)OCc1ccc(NC(=O)[C@H](CCCNC(N)=O)NC(=O)[C@@H](NC(=O)[C@H](COCCOCCN)NC(C)=O)C(C)C)cc1)C(C)C [Example 47, N-acetyl-O-[2-(2-aminoethoxy)ethyl]-L-seryl-L-valyl-N-{4-[(8S,11S,12R)-11-[(2S)-butan-2-yl]-12-(2-{(2S)-2-[(1R,2R)-1-methoxy-2-methyl-3-oxo-3-{[(1S)-2-phenyl-1-(1,3-thiazol-2-yl)ethyl]amino}propyl]pyrrolidin-1-yl}-2-oxoethyl)-5,5,10-trimethyl-3,6,9-trioxo-8-(propan-2-yl)-2,13-dioxa-4,7,10-triazatetradec-1-yl]phenyl}-N˜5˜-carbamoylornithinamide] (Ac-S(X3)V[Cit][PABC][Aib]V[Dil][Dolaproine]-Doe)
DAR after plasma incubation for 3 to 4.5 days ([2]; attachment position L11B): 0.40
Conjugate stability (%) [2, 5]: 20%
DAR ([2]; attachment position L11B): 1.96

CC[C@H](C)[C@@H]([C@@H](CC(=O)N1CCC[C@H]1[C@H](OC)[C@@H](C)C(=O)N[C@@H](Cc1ccccc1)c1nccs1)OC)N(C)C(=O)[C@@H](NC(=O)C(C)(C)NC(=O)OCc1ccc(NC(=O)[C@H](CCCNC(N)=O)NC(=O)[C@@H](NC(=O)[C@H](COCCOCCOCCOCCOCCOCCN)NC(C)=O)C(C)C)cc1)C(C)C [Example 48, N-acetyl-O-(17-amino-3,6,9,12,15-pentaoxaheptadec-1-yl)-L-seryl-L-valyl-N-{4-[(8S,11S,12R)-11-[(2S)-butan-2-yl]-12-(2-{(2S)-2-[(1R,2R)-1-methoxy-2-methyl-3-oxo-3-{[(1S)-2-phenyl-1-(1,3-thiazol-2-yl)ethyl]amino}propyl]pyrrolidin-1-yl}-2-oxoethyl)-5,5,10-trimethyl-3,6,9-trioxo-8-(propan-2-yl)-2,13-dioxa-4,7,10-triazatetradec-1-yl]phenyl}-N˜5˜-carbamoylornithinamide] (Ac-S(X1)V[Cit][PABC][Aib]V[Dil][Dolaproine]-Doe)
DAR after plasma incubation for 3 to 4.5 days ([2]; attachment position L11B): 0
Conjugate stability (%) [2, 5]: 0%
DAR ([2]; attachment position L11B): 1.94

Cl.NCCc1ccc(S(=O)(=O)F)cc1 [Pefabloc]
inhibition of the mouse plasma enzyme (linker cleavage) ([1]; 1 mM, in vitro stability assay with anti-Trop2 L11B C6 vc0101 conjugate as substrate): inhibited

Ac-Lys-Val-Cit-PABC-0101 [reference compound]
DAR ([3]; Combo_Rd4_0.6nM_C29 anti-BCMA antibody, before incubation, HIC): 2.0
Conjugate stability (%) ([3]; anti-BCMA antibody, % DAR remaining after SCID mouse plasma 4.5 days): 99%
DAR after plasma incubation for 4.5 days ([3]; anti-BCMA antibody, SCID mouse plasma): 1.98
DAR after plasma incubation for 3 to 4.5 days ([2]; attachment position H16): 1.96
Conjugate stability (%) ([2]; attachment position H16, % DAR remaining after plasma 3 or 4.5 days): 100%
DAR ([2]; attachment position H16): 1.94

AcLys-vc0101 [Example 11, reference compound]
DAR ([2]; attachment position H7C): 1.90
DAR ([2]; attachment position H8A): 1.82
DAR ([2]; attachment position H10): 1.62
DAR ([2]; attachment position L11B): 1.87
DAR ([2]; attachment position LCQ04): 1.88

AcLys-vcMMAD [Example 9, reference compound]
DAR [2, 4]: 1.97

C6vc0101 [Example 10, reference compound]
DAR [2, 4]: 1.98
DAR ([2]; attachment position H7C): 1.52
DAR ([2]; attachment position H8A): 1.78
DAR ([2]; attachment position H10): 1.72
DAR ([2]; attachment position H16): 2.00
DAR ([2]; attachment position L11B): 1.88
DAR ([2]; attachment position LCQ04): 1.90
DAR ([2]; attachment position N297A): 1.89
DAR ([2]; attachment position N297Q): 3.94
